For experiment [1], the target named is HLA-A*02 complexed with EPS8L2 339-347 (…) on cells. The experiment is described as follows: cell-based or functional assay.
Experiment [2] deals with HLA-A*02 complexed with MAGE-A12 112-120 (…) on cells. Briefly: cell-based or functional assay.

Experimental findings from patent WO2021173674A1 are described below.

In the case of “A118T TCR (MAGE-A3 112-120 clinical TCR)”, in experiment [1], the EC50 in primary human T cell cytotoxicity on peptide-loaded MCF7 cells, against the on-target EC50 is below 10 fold and the fold decrease in potency in Jurkat/T2 cell assays, against the on-target MAGE-A3 peptide came to 500 fold. In experiment [2], this substance showed a potency in Jurkat/T2 cell assays, against the on-target MAGE-A3 peptide of 10 fold.
